How the values were obtained:
[1] = target: T1, PfTrx-Px2Mut1 (Asn62Tyr63 replaced by AspPhe) (Plasmodium falciparum) (UniProt Q8I5Q6)
T1 sequence: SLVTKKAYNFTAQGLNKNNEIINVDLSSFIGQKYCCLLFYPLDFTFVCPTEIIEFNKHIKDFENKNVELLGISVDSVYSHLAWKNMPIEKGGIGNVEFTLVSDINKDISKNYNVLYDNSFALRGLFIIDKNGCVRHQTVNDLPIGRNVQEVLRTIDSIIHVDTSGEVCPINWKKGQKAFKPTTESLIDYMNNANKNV

[2] = target: T2, PfTrx-Px2Mut2 (Phe139Ala140 replaced by ValSer) (Plasmodium falciparum) (UniProt Q8I5Q6)
T2 sequence: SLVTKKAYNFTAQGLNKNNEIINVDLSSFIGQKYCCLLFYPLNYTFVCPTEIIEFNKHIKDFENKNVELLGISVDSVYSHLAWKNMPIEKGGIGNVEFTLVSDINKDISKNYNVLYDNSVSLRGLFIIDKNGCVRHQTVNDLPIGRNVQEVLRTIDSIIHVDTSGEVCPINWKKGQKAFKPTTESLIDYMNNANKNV

AUC = target: the molecule itself; test: AUC

B1: Plasmodium falciparum thioredoxin 1 (PfTrx1), cytosolic thioredoxin (natural protein)
chain: MVKIVTSQAEFDSIISQNELVIVDFFAEWCGPCKRIAPFYEECSKTYTKMVFIKVDVDEVSEVTEKENITSMPTFKVYKNGSSVDTLLGANDSALKQLIEKYAA
Q: With B1 as the binder, how does the KM^app of PfTrx-Px2Mut1 for Trx1; coupled peroxidase assay [1] read?
A: The KM^app of PfTrx-Px2Mut1 for Trx1; coupled peroxidase assay was 86.2 µM.

Q: What about the KM^app of PfTrx-Px2Mut2 for Trx1; coupled peroxidase assay [2] of the same binder?
A: Its KM^app of PfTrx-Px2Mut2 for Trx1; coupled peroxidase assay is 78.8 µM.

B2: Plasmodium falciparum thioredoxin 2 (PfTrx2), construct PfTrx2-S3 lacking the first 47 amino acids (domain or fragment)
chain: MFKKVPRLQQNGSNIINGVNMKNTVIVLYFFAKWCQACTMQSTEMDKLQKYYGKRIYLLKVDLDKNESLARKFSVKSLPTIILLKNKTMLARKDHFVSSNDLIALIKKHL
Q: B2 was tested. Which KM^app of PfTrx-Px2Mut1 for Trx2; coupled peroxidase assay [1] did it give?
A: Its KM^app of PfTrx-Px2Mut1 for Trx2; coupled peroxidase assay is 7.7 µM.

Q: And the KM^app of PfTrx-Px2Mut2 for Trx2; coupled peroxidase assay [2]?
A: Its KM^app of PfTrx-Px2Mut2 for Trx2; coupled peroxidase assay is 12.1 µM.

B3: Plasmodium falciparum mitochondrial peroxiredoxin (PfTrx-Px2), recombinant protein from construct pftrx-px2-2 lacking the first 19 amino acids (enzyme, UniProt Q8I5Q6 20-216, looked up)
chain: SLVTKKAYNFTAQGLNKNNEIINVDLSSFIGQKYCCLLFYPLNYTFVCPTEIIEFNKHIKDFENKNVELLGISVDSVYSHLAWKNMPIEKGGIGNVEFTLVSDINKDISKNYNVLYDNSFALRGLFIIDKNGCVRHQTVNDLPIGRNVQEVLRTIDSIIHVDTSGEVCPINWKKGQKAFKPTTESLIDYMNNANKNV
Q: With B3 as the binder, how does the “stoichiometry N” value (AUC) read?
A: The value was 10.

Source: publication PMC1618809 (Molecular Microbiology, 2006)
